Measurements published in paper PMC4800717, “Hxt13, Hxt15, Hxt16 and Hxt17 from Saccharomyces cerevisiae represent a novel type of polyol transporters” (Scientific Reports, 2016).
Where a chain is given by its changes, count along the chain named. Names and notes keep the numbering of the source.

What was measured:
[1] = substrate: OC[C@@H](O)[C@@H](O)[C@H](O)[C@@H](O)CO; assay: cells, lysate or membranes; assay type: cell-based, Saccharomyces cerevisiae; details: labelled compound, EBY.VW4000 co-expressing SOR1, 30 °C, facilitated transport
[2] = substrate: OC[C@@H](O)[C@@H](O)[C@H](O)[C@H](O)CO; assay: cells, lysate or membranes; assay type: cell-based, Saccharomyces cerevisiae; details: labelled compound, EBY.VW4000 co-expressing YNR073C, 30 °C
[3] = substrate: OC[C@@H](O)[C@@H](O)[C@H](O)[C@@H](O)CO; assay: NAD+ reduction, crude extract of overexpressing yeast; assay type: biochemical, Saccharomyces cerevisiae; details: 1.66 mM NAD+, 60 mM HEPES-NaOH pH 7.4
Description: (§1) NAD+ reduction, crude extract of overexpressing yeast on Sor1

[4] = substrate: OC[C@@H](O)[C@@H](O)[C@H](O)[C@H](O)CO; assay: as above; assay type: biochemical, Saccharomyces cerevisiae; details: 1.66 mM NAD+, 60 mM HEPES-NaOH pH 7.4
Description: as §1

[5] = substrate: OC[C@@H](O)[C@@H](O)[C@H](O)[C@@H](O)CO; assay: as above; assay type: biochemical, Saccharomyces cerevisiae; details: 1.66 mM NAD+, 60 mM HEPES-NaOH pH 7.4; remark: listed apart in the source
Description: (§2) NAD+ reduction, crude extract of overexpressing yeast on Sor2

[6] = substrate: OC[C@@H](O)[C@@H](O)[C@H](O)[C@H](O)CO; assay: as above; assay type: biochemical, Saccharomyces cerevisiae; details: 1.66 mM NAD+, 60 mM HEPES-NaOH pH 7.4; remark: listed apart in the source
Description: as §2

[7] = substrate: OC[C@@H](O)[C@@H](O)[C@H](O)[C@H](O)CO; assay: as above; assay type: biochemical, Saccharomyces cerevisiae; details: 1.66 mM NAD+, 60 mM HEPES-NaOH pH 7.4; remark: listed apart in the source
Description: NAD+ reduction, crude extract of overexpressing yeast on YNR073C

[8] = substrate: OC[C@@H](O)[C@@H](O)[C@H](O)[C@H](O)CO; assay: as above; assay type: biochemical, Saccharomyces cerevisiae; details: 1.66 mM NAD+, 60 mM HEPES-NaOH pH 7.4; remark: listed apart in the source
Description: NAD+ reduction, crude extract of overexpressing yeast on Dsf1

B1: Hxt15 (Saccharomyces cerevisiae S288C) (protein)
chain: MASEQSSPEINADNLNSSAADVHVQPPGEKEWSDGFYDKEVINGNTPDAPKRGFLGYLIIYLLCYPVSFGGFLPGWDSGITAGFINMDNFKMNFGSYKHSTGEYYLSNVRMGLLVAMFSVGCSIGGVAFARLADTLGRRLAIVIVVLVYMVGAIIQISSNHKWYQYFVGKIIYGLGAGGCSVLCPMLLSEIAPTDLRGGLVSLYQLNMTFGIFLGYCSVYGTRKYSNTAQWRIPVGLCFLWALIIIVGMLLVPESPRYLIECERHEEACVSIAKINKVSPEDPWVLKQADEINAGVLAQRELGEASWKELFSVKTKVLQRLITGILVQTFLQLTGENYFFFYGTTIFKSVGLTDGFETSIVLGTVNFFSTIIAVMVVDKIGRRKCLLFGAASMMACMVIFASIGVKCLYPHGQDGPSSKGAGNAMIVFTCFYIFCFATTWAPVAYIVVAESFPSKVKSKAMSISTAFNWLWQFLIGFFTPFITGSIHFYYGYVFVGCLVAMFLYVFFFLPETIGLSLEEIQLLYEEGIKPWKSASWVPPSRRGASSRETEAKKKSWKEVLKFPKSFN
notes: full-length ORF, p426H7 plasmid, expressed in hxt0 yeast EBY.VW4000 or AFY10 with a polyol dehydrogenase
[1]
  Km: 38.9 ± 8.6 mM
[2]; facilitated transport
  Km: 11.4 ± 2.7 mM

B2: Sor1 (Saccharomyces cerevisiae S288C) (protein)
chain: MSQNSNPAVVLEKVGDIAIEQRPIPTIKDPHYVKLAIKATGICGSDIHYYRSGGIGKYILKAPMVLGHESSGQVVEVGDAVTRVKVGDRVAIEPGVPSRYSDETKEGRYNLCPHMAFAATPPIDGTLVKYYLSPEDFLVKLPEGVSYEEGACVEPLSVGVHSNKLAGVRFGTKVVVFGAGPVGLLTGAVARAFGATDVIFVDVFDNKLQRAKDFGATNTFNSSQFSTDKAQDLADGVQKLLGGNHADVVFECSGADVCIDAAVKTTKVGGTMVQVGMGKNYTNFPIAEVSGKEMKLIGCFRYSFGDYRDAVNLVATGKVNVKPLITHKFKFEDAAKAYDYNIAHGGEVVKTIIFGPE
notes: full-length ORF, p425H7 multicopy plasmid, overexpressed in yeast CEN.PK2-1C; crude extract
[3]
  Km: 11.8 ± 1.4 mM
  Vmax: 0.40 ± 0.01 umol substrate converted per minute per
[4]
  Km: 89.0 ± 37.5 mM
  Vmax: 0.10 ± 0.02 umol substrate converted per minute per

B3: Sor2 (Saccharomyces cerevisiae S288C) (protein)
chain: B2 chain with R108S
notes: as for B2
[5]
  Km: 15.1 ± 2.8 mM
  Vmax: 0.5 ± 0.02 umol substrate converted per minute per
[6]
  Km: 98.4 ± 25.7 mM
  Vmax: 0.05 ± 0.01 umol substrate converted per minute per

B4: Hxt13 (Saccharomyces cerevisiae S288C) (protein)
chain: MSSAQSSIDSDGDVRDADIHVAPPVEKEWSDGFDDNEVINGDNVEPPKRGLIGYLVIYLLCYPISFGGFLPGWDSGITAGFINMDNFKMNFGSYKHSTGEYYLSNVRMGLLVAMFSIGCAIGGLIFARLADTLGRRLAIVIVVLVYMVGAIIQISSNHKWYQYFVGKIIYGLGAGGCSVLCPMLLSEIAPTDLRGGLVSLYQLNMTFGIFLGYCSVYGTRKYDNTAQWRVPLGLCFLWALIIIIGMLLVPESPRYLIECERHEEARASIAKINKVSPEDPWVLKQADEINAGVLAQRELGEASWKELFSVKTKVLQRLITGILVQTFLQLTGENYFFFYGTTIFKSVGLTDGFETSIVLGTVNFFSTIIAVMVVDKIGRRKCLLFGAAGMMACMVIFASIGVKCLYPHGQDGPSSKGAGNAMIVFTCFYIFCFATTWAPVAYIVVAESFPSKVKSRAMSISTACNWLWQFLIGFFTPFITGSIHFYYGYVFVGCLVAMFLYVFFFLPETIGLSLEEIQLLYEEGIKPWKSASWVPPSRRGISSEESKTEKKDWKKFLKFSKNSD
notes: full-length ORF, p426H7 plasmid, expressed in hxt0 yeast EBY.VW4000 with YNR073C or SOR1
[1]
  Km: 20.4 ± 2.4 mM
[2]; facilitated transport
  Km: 16.7 ± 2.9 mM

B5: Hxt17 (Saccharomyces cerevisiae S288C) (protein)
chain: MQSSTESDRDIQDGPDADIHVAPPVEKEWSDGFDDNEVINGDNVEPPKRGLIGYLVIYLLCYPISFGGFLPGWDSGITAGFINMDNFKMNFGSYKHSTGEYYLSNVRMGLLVAMFSIGCAIGGLIFARLADTLGRRLAIVIVVLVYMVGAIIQISSNHKWYQYFVGKIIYGLGAGGCSVLCPMLLSEIAPTDLRGGLVSLYQLNMTFGIFLGYCSVYGTRKYDNTAQWRVPLGLCFLWTLIIIIGMLLVPESPRYLIECERHEEARASIAKINKVSPEDPWVLKQADEINAGVLAQRELGEASWKELFSVKTKVLQRLITGILVQTFLQLTGENYFFFYGTTIFKSVGLTDGFETSIVLGTVNFFSTIIAVMVVDKIGRRKCLLFGAAGMMACMVIFASIGVKCLYPHGQDGPSSKGAGNAMIVFTCFYIFCFATTWAPVAYIVVAESFPSKVKSRAMSISTACNWLWQFLIGFFTPFITGSIHFYYGYVFVGCLVAMFLYVFFFLPETIGLSLEEIQLLYEEGIKPWKSASWVPPSRRGIPSEESKTEKKDWKKFLKFSKGSD
notes: as for B4
[2]
  Km: 18.6 ± 4.3 mM

B6: YNR073C (Saccharomyces cerevisiae S288C) (protein)
chain: MTKSDETTATSLNAKTLKSFESTLPIPTYPREGVKQGIVHLGVGAFHRSHLAVFMHRLMQEHHLKDWSICGVGLMKADALMRDAMKAQDCLYTLVERGIKDTNAYIVGSITAYMYAPDDPRAVIEKMANPDTHIVSLTVTENGYYHSEATNSLMTDAPEIINDLNHPEKPDTLYGYLYEALLLRYKRGLTPFTIMSCDNMPQNGVTVKTMLVAFAKLKKDEKFAAWIEDKVTSPNSMVDRVTPRCTDKERKYVADTWGIKDQCPVVAEPFIQWVLEDNFSDGRPPWELVGVQVVKDVDSYELMKLRLLNGGHSAMGYLGYLAGYTYIHEVVNDPTINKYIRVLMREEVIPLLPKVPGVDFEEYTASVLERFSNPAIQDTVARICLMGSGKMPKYVLPSIYEQLRKPDGKYKLLAVCVAGWFRYLTGVDMNGKPFEIEDPMAPTLKAAAVKGGKDPHELLNIEVLFSPEIRDNKEFVAQLTHSLETVYDKGPIAAIKEILDQV
notes: as for B2
[7]
  Km: 3.6 ± 0.5 mM
  Vmax: 0.40 ± 0.02 umol substrate converted per minute per

B7: Dsf1 (Saccharomyces cerevisiae S288C) (protein)
chain: B6 chain
notes: as for B2
[8]
  Km: 2.9 ± 0.3 mM
  Vmax: 0.90 ± 0.02 umol substrate converted per minute per
